Laboratory results reported in patent US20150037339A1 (Regeneron, published 2015).

B1: H4H10442P2 (antibody, human IgG4, V domains shown)
VH: QVQLQESGPGLVKPSETLSITCTVSGGSFSSHFWTWIRQPPGKGLEWIGYLHYSGGTSYNPSLKSRVIISVDTSKNQFSLKLNSVTAADTAVYYCARARSGITFGGLIVPGSFDIWGQGTMVTVSS
VL: not shown
notes: H4H prefix means human IgG4 Fc
B2: H4H10446P2 (antibody, human IgG4, V domains shown)
VH: QVQLQESGPGLVKPSETLSLTCTVSGGSFSSHFWSWIRQPPGKGLEWIGYILYTGGTSFNPSLKSRVSMSVGTSKNQFSLKLSSVTAADTAVYYCARARSGITFTGIIVPGSFDIWGQGTMVTVSS
VL: not shown
notes: as for B1
B3: H4H10430P (antibody, human IgG4, V domains shown)
VH: EVQLVESGGGLVQPGRSLRLSCKASGFAFDDFAMHWVRQAPGKGLEWVSGIVWNSGDIGYADSVKGRFTISRDNAKNSLYLQLNSLRTEDTALYFCVKDMVRGLMGFNYYGMDVWGQGTTVTVSS
VL: EIVLTQSPATLSLSPGERATLSCRASQTISTYLVWYRQRPGQAPSLLIYDASNRATDIPARFSGSGSGTDFTLTISSLEPEDFAVYYCQQRSNWPITFGQGTRLEIK
notes: as for B1
B4: H4H10440P2 (antibody, human IgG4, V domains shown)
VH: EVQLVESGGGVVQPGGSLRLSCAASTFTFDDFAMHWVRQAPGKGLEWVSLITGDGGSTYYADPVKGRFTISRDNSKNSLYLQMNSLRTEDTALYYCVKDWWIAARPDYYYYGMDVWGQGTTVTVSS
VL: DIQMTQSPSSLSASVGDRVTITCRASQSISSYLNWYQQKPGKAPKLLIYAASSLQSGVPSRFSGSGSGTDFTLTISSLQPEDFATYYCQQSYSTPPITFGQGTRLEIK
notes: as for B1

Tests used:
[1] = molecular target: T1, Activin A (homodimer of two inhibin βA subunits; R&D Systems, #338-AC) (human, UniProt P08476 311-426); test: SPR blocking: 5 nM Activin A + 60 nM binder over hActRIIB-hFc (Control 4) surface
T1 construct: Bought protein; also called inhibin-βA dimer
T1 sequence: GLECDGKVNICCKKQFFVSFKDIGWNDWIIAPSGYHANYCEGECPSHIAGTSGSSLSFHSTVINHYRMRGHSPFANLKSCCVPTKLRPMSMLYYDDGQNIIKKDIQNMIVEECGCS
Description: (§1) The binding signal (RU) was measured at 150 seconds after the start of the injection, and this signal was subtracted by the measured RU value for a negative control reference surface to determine the specific binding signal.

[2] = molecular target: T1, Activin A (homodimer of two inhibin βA …); test: SPR blocking: 5 nM Activin A + 60 nM binder over hActRIIA-hFc surface
Description: as §1

[3] = molecular target: T1, Activin A (homodimer of two inhibin βA …); test: SPR blocking: 5 nM Activin A + 30 nM binder over Follistatin-288 surface
Description: as §1

[4] = molecular target: T1, Activin A (homodimer of two inhibin βA …); test: SPR blocking: 5 nM Activin A + 30 nM binder over hActRIIA-hFc surface
Description: as §1

[5] = molecular target: T1, Activin A (homodimer of two inhibin βA …); test: SPR blocking: 5 nM Activin A + 0.94 nM binder over Follistatin-288 surface
Description: as §1

[6] = molecular target: T1, Activin A (homodimer of two inhibin βA …); test: SPR blocking: 5 nM Activin A + 15 nM binder over hActRIIA-hFc surface
Description: as §1

[7] = molecular target: T1, Activin A (homodimer of two inhibin βA …); test: SPR blocking: 5 nM Activin A + 3.75 nM binder over Follistatin-288 surface
Description: as §1

[8] = molecular target: T1, Activin A (homodimer of two inhibin βA …); test: SPR blocking: 5 nM Activin A + 0.00 nM binder over hActRIIB-hFc (Control 4) surface
Description: as §1

[9] = molecular target: T1, Activin A (homodimer of two inhibin βA …); test: SPR blocking: 5 nM Activin A + 0 nM binder over Follistatin-288 surface
Description: as §1

[10] = molecular target: T1, Activin A (homodimer of two inhibin βA …); test: SPR blocking: 5 nM Activin A + 0.94 nM binder over hActRIIB-hFc (Control 4) surface
[11] = molecular target: T1, Activin A (homodimer of two inhibin βA …); test: SPR blocking: 5 nM Activin A + 1.88 nM binder over hActRIIB-hFc (Control 4) surface
Description: as §1

[12] = molecular target: T1, Activin A (homodimer of two inhibin βA …); test: SPR blocking: 5 nM Activin A + 15 nM binder over Follistatin-288 surface
Description: as §1

[13] = molecular target: T1, Activin A (homodimer of two inhibin βA …); test: SPR blocking: 5 nM Activin A + 7.5 nM binder over Follistatin-288 surface
Description: as §1

[14] = molecular target: T1, Activin A (homodimer of two inhibin βA …); test: SPR blocking: 5 nM Activin A + 3.75 nM binder over hActRIIB-hFc (Control 4) surface
Description: as §1

[15] = molecular target: T1, Activin A (homodimer of two inhibin βA …); test: SPR blocking: 5 nM Activin A + 7.50 nM binder over hActRIIA-hFc surface
Description: as §1

[16] = molecular target: T1, Activin A (homodimer of two inhibin βA …); test: SPR blocking: 5 nM Activin A + 60 nM binder over Follistatin-288 surface
Description: as §1

[17] = molecular target: T1, Activin A (homodimer of two inhibin βA …); test: SPR blocking: 5 nM Activin A + 15 nM binder over hActRIIB-hFc (Control 4) surface
[18] = molecular target: T1, Activin A (homodimer of two inhibin βA …); test: SPR blocking: 5 nM Activin A + 0.00 nM binder over hActRIIA-hFc surface
Description: as §1

[19] = molecular target: T1, Activin A (homodimer of two inhibin βA …); test: SPR blocking: 5 nM Activin A + 1.88 nM binder over Follistatin-288 surface
Description: as §1

[20] = molecular target: T1, Activin A (homodimer of two inhibin βA …); test: SPR blocking: 5 nM Activin A + 0.94 nM binder over hActRIIA-hFc surface
Description: as §1

[21] = molecular target: T1, Activin A (homodimer of two inhibin βA …); test: SPR blocking: 5 nM Activin A + 3.75 nM binder over hActRIIA-hFc surface
Description: as §1

[22] = molecular target: T1, Activin A (homodimer of two inhibin βA …); test: SPR blocking: 5 nM Activin A + 7.50 nM binder over hActRIIB-hFc (Control 4) surface
[23] = molecular target: T1, Activin A (homodimer of two inhibin βA …); test: SPR blocking: 5 nM Activin A + 1.88 nM binder over hActRIIA-hFc surface
Description: as §1

[24] = molecular target: T1, Activin A (homodimer of two inhibin βA …); test: SPR blocking: 5 nM Activin A + 30 nM binder over hActRIIB-hFc (Control 4) surface
Description: as §1

Binder | % bound RU w/no inhibitor [1] | % bound RU w/no inhibitor [2] | % bound RU w/no inhibitor [3] | % bound RU w/no inhibitor [4] | % bound RU w/no inhibitor [5] | % bound RU w/no inhibitor [6] | % bound RU w/no inhibitor [7] | % bound RU w/no inhibitor [8] | % bound RU w/no inhibitor [9] | % bound RU w/no inhibitor [10] | % bound RU w/no inhibitor [11] | % bound RU w/no inhibitor [12] | % bound RU w/no inhibitor [13] | % bound RU w/no inhibitor [14] | % bound RU w/no inhibitor [15] | % bound RU w/no inhibitor [16] | % bound RU w/no inhibitor [17] | % bound RU w/no inhibitor [18] | % bound RU w/no inhibitor [19] | % bound RU w/no inhibitor [20] | other results
B1 | 124% | 118% | 3% | 117% | 73% | 113% | 6% | 100% | 100% | 110% | 106% | 3% | 3% | 88% | 105% | 3% | 115% | 100% | 46% | 114% | % bound RU w/no inhibitor [21]: 95%; % bound RU w/no inhibitor [22]: 103%; % bound RU w/no inhibitor [23]: 114%; % bound RU w/no inhibitor [24]: 122%
B2 | 129% | 118% | 3% | 98% | 77% | 108% | 7% | 100% | 100% | 107% | 105% | 3% | 3% | 76% | 94% | 3% | 115% | 100% | 54% | 111% | % bound RU w/no inhibitor [21]: 85%; % bound RU w/no inhibitor [22]: 95%; % bound RU w/no inhibitor [23]: 115%; % bound RU w/no inhibitor [24]: 89%
B3 | 3% | 2% | 1% | 2% | 79% | 2% | 15% | 100% | 100% | 80% | 62% | 1% | 1% | 20% | 3% | 1% | 3% | 100% | 59% | 81% | % bound RU w/no inhibitor [21]: 19%; % bound RU w/no inhibitor [22]: 4%; % bound RU w/no inhibitor [23]: 62%; % bound RU w/no inhibitor [24]: 3%
B4 | 4% | 3% | 1% | 3% | 76% | 4% | 17% | 100% | 100% | 79% | 58% | 2% | 4% | 19% | 6% | 0% | 4% | 100% | 57% | 75% | % bound RU w/no inhibitor [21]: 17%; % bound RU w/no inhibitor [22]: 7%; % bound RU w/no inhibitor [23]: 52%; % bound RU w/no inhibitor [24]: 4%
